This is an account of results in the supplement of paper PMC10567573.

First the molecules themselves.
B1: PRPH (parent)
chain: DEIEFLKKLHEEELRDLQVSVESQ
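Further: lentivirally expressed fusions sorted by FACS into six bins by GFP to DsRed ratio, PSI derived from sequencing read proportions per bin multiplied by bin number.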

The series covers variants of B1. Nature of the series: protein stability index of a GFP-peptide fusion (GPS, HEK-293T) (PSI 1-6); higher = more stable. The conditions noted are these: c terminus: a fixed tail appended.
As to DEIEFLKKLHEPELRDLQVSVESQ [E12P], the protein stability index was 4.77.
Regarding DEIEFLKKLHERELRDLQVSVESQ [E12R], the protein stability index stood at 4.8.
In the case of DEIEFLKKLHEHELRDLQVSVESQ [E12H] it was 4.64; in that of DEIEFLKKLHEWELRDLQVSVESQ [E12W], 4.12; in that of DEIEFLKKLHEFELRDLQVSVESQ [E12F], 4.07.
With DEIEFLKKLHEIELRDLQVSVESQ [E12I], the protein stability index came to 4.05.
Next, DEIEFLKKLHEQELRDLQVSVESQ [E12Q]: 4.53; DEIEFLKKLHEMELRDLQVSVESQ [E12M]: 4.33; DEIEFLKKLHEYELRDLQVSVESQ [E12Y]: 4.07.
In the case of DEIEFLKKLHETELRDLQVSVESQ [E12T] it was 4.43.
In the case of DEIEFLKKLHEAELRDLQVSVESQ [E12A] it was 4.69; in that of DEIEFLKKLHECELRDLQVSVESQ [E12C], 4.54.
In the case of DEIEFLKKLHEGELRDLQVSVESQ [E12G], the protein stability index is 4.19.
In the case of DEIEFLKKLHEEERRDLQVSVESQ [L14R] it was 5.22; in that of DEIEFLKKLHEEEERDLQVSVESQ [L14E], 4.85.
In the case of DEIEFLKKLHEEEMRDLQVSVESQ [L14M] it was 5.02; in that of DEIEFLKKLHEEEKRDLQVSVESQ [L14K], 4.92.
Next, DEIEFLKKLHEEEWRDLQVSVESQ [L14W]: 4.38.
With DEIEFLKKLHEEEYRDLQVSVESQ [L14Y], the protein stability index was determined as 4.6.
Next, DEIEFLKKLHEEEQRDLQVSVESQ [L14Q]: 4.84; DEIEFLKKLHEEETRDLQVSVESQ [L14T]: 5.78; DEIEFLKKLHEEEPRDLQVSVESQ [L14P]: 4.71.
For the variant DEIEFLKKLHEEEGRDLQVSVESQ [L14G], the protein stability index stood at 5.14.
In the case of DEIEFLKKLHEEENRDLQVSVESQ [L14N] it was 5.08.
Next, DEIEFLKKLHEEEVRDLQVSVESQ [L14V]: 5.27; DEIEFLKKLHEEESRDLQVSVESQ [L14S]: 5.18.
In the case of DEIEFLKKLHEEEARDLQVSVESQ [L14A] it was 4.95.
DEIEFLKKLHEEEHRDLQVSVESQ [L14H]: the protein stability index was determined as 5.31.
Next, DEIEFLKKLHEEEFRDLQVSVESQ [L14F]: 4.24; DEIEFLKKLHEEEDRDLQVSVESQ [L14D]: 5.57; DEIEFLKKLHEEECRDLQVSVESQ [L14C]: 5.18.
In the case of DEIEFLKKLHEEEIRDLQVSVESQ [L14I] it was 4.66; in that of DEIEFLKKLHEEELRDLEVSVESQ [Q18E], 4.81.
Turning to DEIEFLKKLHEEELRDLFVSVESQ [Q18F], the protein stability index turned out to be 3.36.
Next, DEIEFLKKLHEEELRDLLVSVESQ [Q18L]: 3.89.
Next, DEIEFLKKLHEEELRDLIVSVESQ [Q18I]: 4.4; DEIEFLKKLHEEELRDLNVSVESQ [Q18N]: 5.11; DEIEFLKKLHEEELRDLYVSVESQ [Q18Y]: 4.21.
Next, DEIEFLKKLHEEELRDLSVSVESQ [Q18S]: 5.08; DEIEFLKKLHEEELRDLPVSVESQ [Q18P]: 5.3; DEIEFLKKLHEEELRDLGVSVESQ [Q18G]: 5.
Turning to DEIEFLKKLHEEELRDLDVSVESQ [Q18D], the protein stability index was determined as 5.27.
Next, DEIEFLKKLHEEELRDLRVSVESQ [Q18R]: 4.62; DEIEFLKKLHEEELRDLMVSVESQ [Q18M]: 4.37; DEIEFLKKLHEEELRDLKVSVESQ [Q18K]: 4.63.
Next, DEIEFLKKLHEEELRDLCVSVESQ [Q18C]: 4.86; DEIEFLKKLHEEELRDLVVSVESQ [Q18V]: 4.38; DEIEFLKKLHEEELRDLHVSVESQ [Q18H]: 4.69.
In the case of DEIEFLKKLHEEELRDLWVSVESQ [Q18W] it was 3.39.
For the variant DEIEFLKKLHEEELRDLAVSVESQ [Q18A], the protein stability index came to 4.46.
Consider DEIEFLKKLHEEELRDLTVSVESQ [Q18T], for which the protein stability index amounted to 5.36.
In the case of DEIEFLKKLHEEELRDLQYSVESQ [V19Y] it was 4.56.
Next, DEIEFLKKLHEEELRDLQKSVESQ [V19K]: 5; DEIEFLKKLHEEELRDLQWSVESQ [V19W]: 5.12.
Consider DEIEFLKKLHEEELRDLQQSVESQ [V19Q], for which the protein stability index was found to be 5.01.
Next, DEIEFLKKLHEEELRDLQFSVESQ [V19F]: 4.39; DEIEFLKKLHEEELRDLQTSVESQ [V19T]: 5.19.
Next, DEIEFLKKLHEEELRDLQNSVESQ [V19N]: 4.87; DEIEFLKKLHEEELRDLQPSVESQ [V19P]: 4.93; DEIEFLKKLHEEELRDLQGSVESQ [V19G]: 5.15.
In the case of DEIEFLKKLHEEELRDLQASVESQ [V19A] it was 5.23; in that of DEIEFLKKLHEEELRDLQMSVESQ [V19M], 4.76.
As for DEIEFLKKLHEEELRDLQHSVESQ [V19H], the protein stability index turned out to be 5.27.
In the case of DEIEFLKKLHEEELRDLQRSVESQ [V19R] it was 5.06; in that of DEIEFLKKLHEEELRDLQSSVESQ [V19S], 4.6; in that of DEIEFLKKLHEEELRDLQESVESQ [V19E], 5.
On to DEIEFLKKLHEEELRDLQCSVESQ [V19C], for which the protein stability index came out at 5.23.
In the case of DEIEFLKKLHEEELRDLQLSVESQ [V19L] it was 4.85; in that of DEIEFLKKLHEEELRDLQISVESQ [V19I], 5.18; in that of DEIEFLKKLHEEELRDLQDSVESQ [V19D], 5.58.
In the case of DEIEFLKKLHWEELRDLQVSVESQ [E11W] it was 3.21; in that of DEIEFLKKLHSEELRDLQVSVESQ [E11S], 4.52; in that of DEIEFLKKLHYEELRDLQVSVESQ [E11Y], 2.95.
With DEIEFLKKLHVEELRDLQVSVESQ [E11V], the protein stability index came to 3.99.
In the case of DEIEFLKKLHREELRDLQVSVESQ [E11R] it was 4.23.
Next, DEIEFLKKLHTEELRDLQVSVESQ [E11T]: 4.46; DEIEFLKKLHEEGLRDLQVSVESQ [E13G]: 4.83.
Next, DEIEFLKKLHEECLRDLQVSVESQ [E13C]: 3.59.
As to DEIEFLKKLHEELLRDLQVSVESQ [E13L], the protein stability index stood at 3.27.
Next, DEIEFLKKLHEEPLRDLQVSVESQ [E13P]: 5.05; DEIEFLKKLHEENLRDLQVSVESQ [E13N]: 4.97; DEIEFLKKLHEEALRDLQVSVESQ [E13A]: 3.9.
In the case of DEIEFLKKLHEEMLRDLQVSVESQ [E13M], the protein stability index amounted to 3.46.
In the case of DEIEFLKKLHEEQLRDLQVSVESQ [E13Q], the protein stability index amounted to 4.65.
In the case of DEIEFLKKLHEEVLRDLQVSVESQ [E13V] it was 3.73.
Next, DEIEFLKKLHEEILRDLQVSVESQ [E13I]: 2.74.
In the case of DEIEFLKKLHEETLRDLQVSVESQ [E13T] it was 4.05.
For the variant DEIEFLKKLHEEFLRDLQVSVESQ [E13F], the protein stability index is 2.85.
In the case of DEIEFLKKLHEEDLRDLQVSVESQ [E13D] it was 4.97; in that of DEIEFLKKLHEEHLRDLQVSVESQ [E13H], 4.45.
In the case of DEIEFLKKLHEESLRDLQVSVESQ [E13S] it was 4.16; in that of DEIEFLKKLHEERLRDLQVSVESQ [E13R], 4.42; in that of DEIEFLKKLHEEYLRDLQVSVESQ [E13Y], 3.95.
Next, DEIEFLKKLHEEKLRDLQVSVESQ [E13K]: 5.25.
